Assays:
Type in all cases: cell-based, human
[1] = system: hESCs; assay: CXCR4+ cell number by flow cytometry; details: 0, 10, or 100 ng/ml, 7 days (FIGS. 30A-C)
Procedure: hESCs were differentiated in RPMI media supplemented with 0.5%-2% FBS (increased from 0.5% to 1.0% to 2.0% over the first 3 days of differentiation) and either 0, 10, or 100 ng/ml of activin A. After 7 days of differentiation the cells were dissociated in PBS without Ca^2+/Mg^2+ containing 2% FBS and 2 mM (EDTA) for 5 minutes at room temperature. The cells were filtered through 35 μm nylon filters, counted and pelleted. Pellets were resuspended in a small volume of 50% human serum/50% normal donkey serum and incubated for 2 minutes on ice to block non-specific antibody binding sites. To this, 1 μl of mouse anti-CXCR4 antibody (Abcam, cat # ab10403-100) was added per 50 μl (containing approximately 10^5 cells) and labeling proceeded for 45 minutes on ice. Cells were washed by adding 5 ml of PBS containing 2% human serum (buffer) and pelleted. A second wash with 5 ml of buffer was completed then cells were resuspended in 50 μl buffer per 10^5 cells. […] Cells were resuspended at 5×10^6 cells/ml in buffer and analyzed and sorted using a FACS Vantage (Beckton Dickenson) by the staff at the flow cytometry core facility (The Scripps Research Institute). Cells were collected directly into RLT lysis buffer (Qiagen) for subsequent isolation of total RNA for gene expression analysis by real-time quantitative PCR.

[2] = system: hESCs; assay: Q-PCR of germ layer marker genes (MIXL1, GATA4, HNF3b, SOX7, SPARC, ZIC1, Brachyury) in differentiating hESCs
Text: We routinely used Q-PCR to measure the gene expression of multiple markers of target and non-target cell types in order to provide a broad profile description of gene expression in cell samples. The markers relevant for the early phases of hESC differentiation (specifically ectoderm, mesoderm, definitive endoderm and extra-embryonic endoderm) and for which validated primer sets are available are provided below in Table 1. […] This is an important fact since the hESCs were often grown on mouse feeder layers. Most typically, triplicate samples were taken for each condition and independently analyzed in duplicate to assess the biological variability associated with each quantitative determination.
To generate PCR template, total RNA was isolated using RNeasy (Qiagen) and quantitated using RiboGreen (Molecular Probes). Reverse transcription from 350-500 ng of total RNA was carried out using the iScript reverse transcriptase kit (BioRad), which contains a mix of oligo-dT and random primers. Each 20 μL reaction was subsequently diluted up to 100 μL total volume and 3 μL was used in each 10 μL Q-PCR reaction containing 400 nM forward and reverse primers and 5 μL 2×SYBR Green master mix (Qiagen). Two step cycling parameters were used employing a 5 second denature at 85-94° C. (specifically selected according to the melting temp of the amplicon for each primer set) followed by a 45 second anneal/extend at 60° C. Fluorescence data was collected during the last 15 seconds of each extension phase. A three point, 10-fold dilution series was used to generate the standard curve for each run and cycle thresholds (Ct's) were converted to quantitative values based on this standard curve. The quantitated values for each sample were normalized to housekeeping gene performance and then average and standard deviations were calculated for triplicate samples. At the conclusion of PCR cycling, a melt curve analysis was performed to ascertain the specificity of the reaction. A single specific product was indicated by a single peak at the Tm appropriate for that PCR amplicon.
Definitive endoderm cells were predicted to express high levels of SOX17 mRNA and low levels of AFP and SOX7 (visceral endoderm), SPARC (parietal endoderm) and Brachyury (mesoderm). In addition, ZIC1 was used here to further rule out induction of early ectoderm. Finally, GATA4 and HNF3b were expressed in both definitive and extra-embryonic endoderm, and thus, correlate with SOX17 expression in definitive endoderm (Table 1).

[3] = system: hESCs; assay: AFP antibody-labeled cell number by flow cytometry; details: FIGS. 9A-B
Text: As a further evidence of the specificity of the SOX17^hi/AFP^lo/TM^lo/SPARC^lo marker profile as predictive of definitive endoderm, SOX17 and AFP gene expression was quantitatively compared to the relative number of antibody labeled cells.

[4] = system: hESCs; assay: Antibody labeling (immunocytochemistry) of differentiating hESCs for SOX17 and AFP
Text: However, AFP and SOX7 are not expressed in definitive endoderm cells at levels detectable by ICC, and thus, they can be employed as negative markers for bonifide definitive endoderm cells. It was shown that SOX17 antibody labels populations of cells that exist as discrete groupings of cells or are intermingled with AFP positive cells. […] Similarly, since parietal endoderm has been reported to express SOX17, antibody co-labeling with SOX17 together with the parietal markers SPARC and/or Thrombomodulin (TM) can be used to identify the SOX17^+ cells that are parietal endoderm. As shown in FIGS. 6A-C, Thrombomodulin and SOX17 co-labeled parietal endoderm cells were produced by random differentiation of hES cells.
With the SOX17 antibody and Q-PCR tools described above we have explored a number of procedures capable of efficiently programming hESCs to become SOX17^hi/AFP^lo/SPARC/TM^lo definitive endoderm cells. We applied a variety of differentiation protocols aimed at increasing the number and proliferative capacity of these cells as measured at the population level by Q-PCR for SOX17 gene expression and at the level of individual cells by antibody labeling of SOX17 protein.
To determine the effect of TGFβ factor treatment at the individual cell level, a time course of TGFβ factor addition was examined using SOX17 antibody labeling. […]

B1: activin A (protein, UniProt P08476 311-426, looked up)
Inhibin beta A chain: GLECDGKVNICCKKQFFVSFKDIGWNDWIIAPSGYHANYCEGECPSHIAGTSGSSLSFHSTVINHYRMRGHSPFANLKSCCVPTKLRPMSMLYYDDGQNIIKKDIQNMIVEECGCS
modifications: Inhibin beta A chain
number of CXCR4+ cells as determined by flow cytometry [1]: increase dramatically
mesoderm differentiation (brachyury expression) ([2]; 100 ng/ml (FIG. 14B)): notable suppression
effect on neural differentiation (ZIC1 expression) ([2]; activin A dose series (FIG. 14A)): not a dose-dependent effect
expression of definitive endoderm markers MIXL1, GATA4 and HNF3b ([2]; activin A dose series (FIGS. 12A-C)): dose-dependent increases
expression of primitive endoderm (SOX7) and parietal endoderm (SPARC) markers ([2]; activin A dose series (FIGS. 13B-C)): remain either unchanged or exhibit suppression at some time points
decrease in AFP antibody-labeled cell number as measured by flow cytometry [3]: approximately 7 fold
dose dependence of SOX17+ cell number ([4]; FIG. 22): dose-dependent increase
difference in SOX17 antibody-labeled cell number ([4]; hESCs treated with activin A vs retinoic acid (FIG. 7B)): 10 fold
